Here are results for one molecule from PMC3288673.

For the series, the target named is T1, Rev-Erbα (UniProt P20393 1-614).
T1 sequence: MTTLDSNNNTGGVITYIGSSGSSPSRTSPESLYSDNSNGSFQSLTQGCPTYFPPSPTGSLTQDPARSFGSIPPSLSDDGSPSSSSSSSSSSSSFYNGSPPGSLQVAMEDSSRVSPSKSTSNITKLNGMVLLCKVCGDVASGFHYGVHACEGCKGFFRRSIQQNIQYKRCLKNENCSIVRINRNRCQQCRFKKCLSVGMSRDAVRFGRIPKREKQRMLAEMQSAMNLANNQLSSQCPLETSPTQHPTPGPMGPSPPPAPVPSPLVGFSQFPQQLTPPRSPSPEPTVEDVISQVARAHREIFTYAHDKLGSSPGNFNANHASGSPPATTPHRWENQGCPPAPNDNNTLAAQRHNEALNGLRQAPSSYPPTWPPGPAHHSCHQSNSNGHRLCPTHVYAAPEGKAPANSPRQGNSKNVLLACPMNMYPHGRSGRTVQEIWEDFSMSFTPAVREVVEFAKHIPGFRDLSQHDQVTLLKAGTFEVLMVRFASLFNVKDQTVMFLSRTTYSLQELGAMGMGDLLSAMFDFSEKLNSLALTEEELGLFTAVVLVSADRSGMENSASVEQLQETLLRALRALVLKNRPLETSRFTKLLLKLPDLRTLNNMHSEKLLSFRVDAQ
Briefly: EMSA. (In general: In EMSA bound probe runs differently from free probe, usually more slowly.)

B1: RevDR2 (dsDNA)
DNA 1: AGCTCCAACTAGGTCACTAGGTCAAAGGGA
DNA 2: TCGATCCCTTTGACCTAGTGACCTAGTTGG
For the molecule B1, the binding result is recorded as “binds”.
